Reference: IntAct's records for PubMed 28065597

B1: Tyrosine-protein phosphatase non-receptor type 12 (Homo sapiens), Q05209 (parent)
chain: MEQVEILRKFIQRVQAMKSPDHNGEDNFARDFMRLRRLSTKYRTEKIYPTATGEKEENVKKNRYKDILPFDHSRVKLTLKTPSQDSDYINANFIKGVYGPKAYVATQGPLANTVIDFWRMIWEYNVVIIVMACREFEMGRKKCERYWPLYGEDPITFAPFKISCEDEQARTDYFIRTLLLEFQNESRRLYQFHYVNWPDHDVPSSFDSILDMISLMRKYQEHEDVPICIHCSAGCGRTGAICAIDYTWNLLKAGKIPEEFNVFNLIQEMRTQRHSAVQTKEQYELVHRAIAQLFEKQLQLYEIHGAQKIADGVNEINTENMVSSIEPEKQDSPPPKPPRTRSCLVEGDAKEEILQPPEPHPVPPILTPSPPSAFPTVTTVWQDNDRYHPKPVLHMVSSEQHSADLNRNYSKSTELPGKNESTIEQIDKKLERNLSFEIKKVPLQEGPKSFDGNTLLNRGHAIKIKSASPCIADKISKPQELSSDLNVGDTSQNSCVDCSVTQSNKVSVTPPEESQNSDTPPRPDRLPLDEKGHVTWSFHGPENAIPIPDLSEGNSSDINYQTRKTVSLTPSPTTQVETPDLVDHDNTSPLFRTPLSFTNPLHSDDSDSDERNSDGAVTQNKTNISTASATVSAATSTESISTRKVLPMSIARHNIAGTTHSGAEKDVDVSEDSPPPLPERTPESFVLASEHNTPVRSEWSELQSQERSEQKKSEGLITSENEKCDHPAGGIHYEMCIECPPTFSDKREQISENPTEATDIGFGNRCGKPKGPRDPPSEWT
B2: Receptor-type tyrosine-protein phosphatase R (Homo sapiens), Q15256 (parent)
chain: MRRAVCFPALCLLLNLHAAGCFSGNNDHFLAINQKKSGKPVFIYKHSQDIEKSLDIAPQKIYRHSYHSSSEAQVSKRHQIVNSAFPRPAYDPSLNLLAMDGQDLEVENLPIPAANVIVVTLQMDVNKLNITLLRIFRQGVAAALGLLPQQVHINRLIGKKNSIELFVSPINRKTGISDALPSEEVLRSLNINVLHQSLSQFGITEVSPEKNVLQGQHEADKIWSKEGFYAVVIFLSIFVIIVTCLMILYRLKERFQLSLRQDKEKNQEIHLSPITLQPALSEAKTVHSMVQPEQAPKVLNVVVDPQGRGAPEIKATTATSVCPSPFKMKPIGLQERRGSNVSLTLDMSSLGNIEPFVSIPTPREKVAMEYLQSASRILTRSQLRDVVASSHLLQSEFMEIPMNFVDPKEIDIPRHGTKNRYKTILPNPLSRVCLRPKNVTDSLSTYINANYIRGYSGKEKAFIATQGPMINTVDDFWQMVWQEDSPVIVMITKLKEKNEKCVLYWPEKRGIYGKVEVLVISVNECDNYTIRNLVLKQGSHTQHVKHYWYTSWPDHKTPDSAQPLLQLMLDVEEDRLASQGRGPVVVHCSAGIGRTGCFIATSIGCQQLKEEGVVDALSIVCQLRMDRGGMVQTSEQYEFVHHALCLYESRLSAETVQ

Variants of: B1
Settings: with erbb4_human ERBB4, Q15303

effect of a mutation on the interaction	Variant
disrupting interaction	D199A;C231S
with no effect	C231S

Variants of: B1
Settings: with fgfr2_human FGFR2, P21802
Target sequence in this assay (P21802 whole entry, looked up): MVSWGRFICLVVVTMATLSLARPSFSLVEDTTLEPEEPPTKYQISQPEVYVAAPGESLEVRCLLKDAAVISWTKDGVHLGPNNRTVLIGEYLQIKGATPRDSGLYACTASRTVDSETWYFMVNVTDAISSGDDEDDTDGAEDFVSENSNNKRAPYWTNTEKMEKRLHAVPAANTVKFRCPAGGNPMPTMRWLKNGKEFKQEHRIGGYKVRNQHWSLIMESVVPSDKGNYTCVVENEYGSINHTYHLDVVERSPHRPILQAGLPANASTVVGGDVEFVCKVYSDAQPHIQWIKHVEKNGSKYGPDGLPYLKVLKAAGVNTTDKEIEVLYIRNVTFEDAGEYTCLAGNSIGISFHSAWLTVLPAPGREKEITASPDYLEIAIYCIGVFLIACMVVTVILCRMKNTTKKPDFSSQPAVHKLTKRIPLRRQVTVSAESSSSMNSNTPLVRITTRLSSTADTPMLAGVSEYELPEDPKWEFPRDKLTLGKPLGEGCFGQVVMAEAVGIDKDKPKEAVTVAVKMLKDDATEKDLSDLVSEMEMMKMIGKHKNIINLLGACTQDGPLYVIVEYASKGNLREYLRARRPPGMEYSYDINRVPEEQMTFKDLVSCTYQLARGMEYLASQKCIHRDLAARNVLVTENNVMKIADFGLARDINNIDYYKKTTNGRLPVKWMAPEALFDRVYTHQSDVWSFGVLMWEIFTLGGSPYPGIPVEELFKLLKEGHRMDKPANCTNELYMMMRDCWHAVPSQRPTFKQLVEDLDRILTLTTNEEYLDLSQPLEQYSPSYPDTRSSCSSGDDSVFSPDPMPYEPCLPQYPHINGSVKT

effect of a mutation on the interaction	Variant
disrupting interaction	D199A;C231S
disrupting interaction	C231S

Variants of: B1
Settings: with vgfr2_human KDR
Target sequence in this assay (P35968 whole entry): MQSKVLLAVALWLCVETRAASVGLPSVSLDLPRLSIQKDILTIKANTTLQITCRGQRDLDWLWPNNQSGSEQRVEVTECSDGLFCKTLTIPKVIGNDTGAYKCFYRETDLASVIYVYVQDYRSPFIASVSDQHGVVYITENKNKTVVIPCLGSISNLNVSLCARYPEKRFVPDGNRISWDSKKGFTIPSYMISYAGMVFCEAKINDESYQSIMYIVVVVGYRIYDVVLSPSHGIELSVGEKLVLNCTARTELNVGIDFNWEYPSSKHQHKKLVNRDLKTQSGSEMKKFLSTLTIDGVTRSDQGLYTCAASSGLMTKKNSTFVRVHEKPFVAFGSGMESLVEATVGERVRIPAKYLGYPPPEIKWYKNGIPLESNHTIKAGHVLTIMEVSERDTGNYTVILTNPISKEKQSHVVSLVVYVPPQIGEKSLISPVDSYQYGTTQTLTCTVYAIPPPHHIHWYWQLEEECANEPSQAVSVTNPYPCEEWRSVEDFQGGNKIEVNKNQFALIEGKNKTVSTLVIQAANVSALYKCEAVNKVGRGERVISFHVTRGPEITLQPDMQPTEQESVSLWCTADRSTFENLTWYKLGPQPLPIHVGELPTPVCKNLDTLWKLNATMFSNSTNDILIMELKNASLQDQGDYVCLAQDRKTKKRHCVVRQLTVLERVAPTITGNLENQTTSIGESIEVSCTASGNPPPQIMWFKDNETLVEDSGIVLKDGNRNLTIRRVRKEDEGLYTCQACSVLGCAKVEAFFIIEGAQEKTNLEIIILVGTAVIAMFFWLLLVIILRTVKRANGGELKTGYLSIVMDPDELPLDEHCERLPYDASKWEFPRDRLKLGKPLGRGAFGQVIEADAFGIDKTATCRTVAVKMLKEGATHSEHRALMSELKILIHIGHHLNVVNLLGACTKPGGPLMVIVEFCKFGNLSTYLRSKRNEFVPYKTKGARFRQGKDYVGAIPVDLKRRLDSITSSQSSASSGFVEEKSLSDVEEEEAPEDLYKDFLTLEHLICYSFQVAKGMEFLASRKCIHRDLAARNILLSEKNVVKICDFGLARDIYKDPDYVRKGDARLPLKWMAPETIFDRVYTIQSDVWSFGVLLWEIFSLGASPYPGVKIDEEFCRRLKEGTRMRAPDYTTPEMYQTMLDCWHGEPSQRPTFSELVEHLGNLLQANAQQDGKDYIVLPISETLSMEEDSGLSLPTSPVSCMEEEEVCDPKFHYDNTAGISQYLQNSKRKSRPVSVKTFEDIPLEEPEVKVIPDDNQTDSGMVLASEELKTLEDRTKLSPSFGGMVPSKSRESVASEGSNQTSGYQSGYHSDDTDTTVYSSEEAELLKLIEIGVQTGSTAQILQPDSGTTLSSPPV

effect of a mutation on the interaction	Variant
with no effect	D199A;C231S
with no effect	C231S

Variants of: B1
Settings: with igf1r_human IGF1R
Target sequence in this assay (P08069 whole entry, looked up): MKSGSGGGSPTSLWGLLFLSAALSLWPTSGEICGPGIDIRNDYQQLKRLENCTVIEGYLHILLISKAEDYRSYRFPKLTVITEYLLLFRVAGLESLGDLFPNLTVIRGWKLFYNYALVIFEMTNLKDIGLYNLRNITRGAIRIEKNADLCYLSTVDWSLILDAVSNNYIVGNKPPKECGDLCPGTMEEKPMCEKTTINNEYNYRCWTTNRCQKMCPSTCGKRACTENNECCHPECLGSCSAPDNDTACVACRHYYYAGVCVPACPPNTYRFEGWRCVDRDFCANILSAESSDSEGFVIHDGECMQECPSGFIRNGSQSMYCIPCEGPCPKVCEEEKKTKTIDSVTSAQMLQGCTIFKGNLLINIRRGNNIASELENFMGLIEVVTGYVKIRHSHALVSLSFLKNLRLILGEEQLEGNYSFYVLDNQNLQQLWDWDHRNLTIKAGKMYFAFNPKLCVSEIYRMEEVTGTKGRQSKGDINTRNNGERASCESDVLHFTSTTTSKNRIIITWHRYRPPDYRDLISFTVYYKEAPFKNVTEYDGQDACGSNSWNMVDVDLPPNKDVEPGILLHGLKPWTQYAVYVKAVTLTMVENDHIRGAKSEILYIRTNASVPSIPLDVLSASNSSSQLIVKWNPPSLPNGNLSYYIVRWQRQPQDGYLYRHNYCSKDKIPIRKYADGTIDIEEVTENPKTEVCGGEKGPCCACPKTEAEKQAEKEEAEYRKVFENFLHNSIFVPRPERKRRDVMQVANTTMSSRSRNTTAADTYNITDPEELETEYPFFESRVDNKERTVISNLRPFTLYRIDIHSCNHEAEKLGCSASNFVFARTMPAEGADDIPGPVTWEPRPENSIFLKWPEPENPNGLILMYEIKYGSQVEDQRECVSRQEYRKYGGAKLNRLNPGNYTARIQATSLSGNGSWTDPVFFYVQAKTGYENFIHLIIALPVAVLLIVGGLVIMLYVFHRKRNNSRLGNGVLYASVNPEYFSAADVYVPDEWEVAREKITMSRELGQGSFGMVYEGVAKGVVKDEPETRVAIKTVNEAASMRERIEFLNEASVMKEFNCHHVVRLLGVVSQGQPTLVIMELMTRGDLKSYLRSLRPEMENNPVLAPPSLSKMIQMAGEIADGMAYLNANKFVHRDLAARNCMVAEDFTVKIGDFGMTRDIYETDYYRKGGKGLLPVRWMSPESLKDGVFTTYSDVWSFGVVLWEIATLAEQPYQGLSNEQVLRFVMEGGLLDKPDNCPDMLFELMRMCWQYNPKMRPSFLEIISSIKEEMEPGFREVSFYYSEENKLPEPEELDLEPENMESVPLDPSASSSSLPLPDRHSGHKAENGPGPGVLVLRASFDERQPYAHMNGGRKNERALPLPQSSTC

effect of a mutation on the interaction	Variant
disrupting interaction	D199A;C231S
increasing interaction	C231S

Variants of: B1
Settings: with erbb4_human ERBB4, Q15303
Remark: another data set of the same source

effect of a mutation on the interaction	Variant
disrupting interaction	C231S

Variants of: B1
Settings: with fgfr4_human FGFR4, P22455
Target sequence in this assay (P22455 whole entry, looked up): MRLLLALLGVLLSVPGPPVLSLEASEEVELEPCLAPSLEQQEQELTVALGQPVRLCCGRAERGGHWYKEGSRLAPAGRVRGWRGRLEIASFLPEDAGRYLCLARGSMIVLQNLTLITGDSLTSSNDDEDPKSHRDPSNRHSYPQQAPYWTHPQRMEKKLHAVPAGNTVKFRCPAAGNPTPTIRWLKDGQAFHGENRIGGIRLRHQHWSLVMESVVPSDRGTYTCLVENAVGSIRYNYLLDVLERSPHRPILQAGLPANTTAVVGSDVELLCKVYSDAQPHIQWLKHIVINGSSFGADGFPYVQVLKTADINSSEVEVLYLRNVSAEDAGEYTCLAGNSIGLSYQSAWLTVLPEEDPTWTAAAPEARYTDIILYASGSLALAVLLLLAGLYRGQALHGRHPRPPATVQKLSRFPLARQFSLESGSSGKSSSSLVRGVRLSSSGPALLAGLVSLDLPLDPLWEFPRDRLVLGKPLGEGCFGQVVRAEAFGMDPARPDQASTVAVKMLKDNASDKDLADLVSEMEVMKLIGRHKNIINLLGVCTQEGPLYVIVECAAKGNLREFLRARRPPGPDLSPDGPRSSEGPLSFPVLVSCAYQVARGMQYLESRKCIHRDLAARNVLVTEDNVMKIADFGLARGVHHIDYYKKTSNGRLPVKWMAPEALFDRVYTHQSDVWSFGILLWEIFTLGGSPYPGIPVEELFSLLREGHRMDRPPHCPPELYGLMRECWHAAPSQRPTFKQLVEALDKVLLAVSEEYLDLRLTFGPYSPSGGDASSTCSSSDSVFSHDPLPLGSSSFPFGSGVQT

effect of a mutation on the interaction	Variant
increasing interaction	C231S

Variants of: B1
Settings: with igf1r_human IGF1R
Remark: another data set of the same source
Target sequence in this assay (P08069 whole entry, looked up): as the sequence (P08069 whole entry, looked up) above

effect of a mutation on the interaction	Variant
decreasing interaction	C235S
with no effect	D201A;C235S

Variants of: B2
Settings: with ret_human RET

effect of a mutation on the interaction	Variant
disrupting interaction	Y249F;D554A;C588S
disrupting interaction	D554A;C588S

Variants of: B2
Settings: with erbb4_human ERBB4, Q15303

effect of a mutation on the interaction	Variant
with no effect	D554A;C588S

Variants of: B2
Settings: with ret_human RET
Remark: another data set of the same source

effect of a mutation on the interaction	Variant
with no effect	D554A;C588S

Variants of: B2
Settings: with igf1r_human IGF1R
Target sequence in this assay (P08069 whole entry, looked up): as above

effect of a mutation on the interaction	Variant
decreasing interaction	D554A;C588S

Variants of: B2
Settings: with ron_mouse Mst1r, Q62190

effect of a mutation on the interaction	Variant
disrupting interaction	D554A;C588S

Variants of: B2
Settings: with ntrk1_human NTRK1, P04629

effect of a mutation on the interaction	Variant
with no effect	D554A;C588S

Variants of: B2
Settings: with tie2_human TEK

effect of a mutation on the interaction	Variant
decreasing interaction	D554A;C588S

Variants of: B2
Settings: with ron_mouse Mst1r

effect of a mutation on the interaction	Variant
increasing interaction	D554A;C588S

Variants of: B2
Settings: with fgfr2_human FGFR2, P21802
Target sequence in this assay (P21802 whole entry, looked up): as the sequence (P21802 whole entry, looked up) above

effect of a mutation on the interaction	Variant
decreasing interaction	D554A;C588S

Variants of: B2
Settings: with fgfr4_human FGFR4, P22455
Target sequence in this assay (P22455 whole entry, looked up): as the sequence (P22455 whole entry, looked up) above

effect of a mutation on the interaction	Variant
decreasing interaction	D554A;C588S

Variants of: B2
Settings: with vgfr2_human KDR
Target sequence in this assay (P35968 whole entry): as the sequence (P35968 whole entry) above

effect of a mutation on the interaction	Variant
with no effect	D554A;C588S

Variants of: B2
Settings: with igf1r_human IGF1R
Remark: another data set of the same source
Target sequence in this assay (P08069 whole entry, looked up): as the sequence (P08069 whole entry, looked up) above

effect of a mutation on the interaction	Variant
with no effect	D554A;C588S
